Source: US20250073311A1, “DOSAGE REGIME” (ZEALAND PHARMA A/S, priority 2021, published 2025)
Numbered stars: 1 amine (or outer) side, 2 acyl side, 3 side chain; on linkers, the order of the positions; unused ones are H or OH. Square brackets hold non-standard residues; d marks the D form. Side chains are listed from the residue outwards. * marks the point of attachment. C20 diacid = O=C(O)CCCCCCCCCCCCCCCCCCC(=O)*; C18 diacid = O=C(O)CCCCCCCCCCCCCCCCC(=O)*; γGlu = O=C(O)[C@H](CCC(=O)[*:2])N[*:1]; Stearoyl = CCCCCCCCCCCCCCCCCC(=O)*; AEEA = NCCOCCOCC(=O)O; Aib = CC(C)(N)C(=O)O

T1: human GLP-2 receptor (hGLP2-R) (human, UniProt O95838)
T1 sequence: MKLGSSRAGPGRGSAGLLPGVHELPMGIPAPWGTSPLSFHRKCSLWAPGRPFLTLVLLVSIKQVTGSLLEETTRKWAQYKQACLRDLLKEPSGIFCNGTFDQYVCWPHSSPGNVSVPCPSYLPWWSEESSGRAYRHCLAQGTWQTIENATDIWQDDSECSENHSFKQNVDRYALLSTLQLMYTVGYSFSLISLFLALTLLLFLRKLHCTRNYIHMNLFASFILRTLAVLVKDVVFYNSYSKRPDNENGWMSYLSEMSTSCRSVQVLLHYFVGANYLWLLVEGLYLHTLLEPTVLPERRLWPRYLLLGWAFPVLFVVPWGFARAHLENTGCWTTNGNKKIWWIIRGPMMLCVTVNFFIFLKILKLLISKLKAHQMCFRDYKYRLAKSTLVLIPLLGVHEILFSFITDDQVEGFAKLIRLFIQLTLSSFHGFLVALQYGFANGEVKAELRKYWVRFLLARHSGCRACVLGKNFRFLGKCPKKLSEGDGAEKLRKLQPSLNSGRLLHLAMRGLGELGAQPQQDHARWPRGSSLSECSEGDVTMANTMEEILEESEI

B1: Compound 38 (peptide)
peptide: H-H[Aib]EGTFSSELATILDEQAARDFIAWLIAHKITD[dK][dK][dK][dK][dK][dK]([γGlu-C18 diacid])-NH2
SMILES: CC[C@H](C)[C@H](NC(=O)[C@H](CC(C)C)NC(=O)[C@H](Cc1c[nH]c2ccccc12)NC(=O)[C@H](C)NC(=O)[C@@H](NC(=O)[C@H](Cc1ccccc1)NC(=O)[C@H](CC(=O)O)NC(=O)[C@H](CCCNC(=N)N)NC(=O)[C@H](C)NC(=O)[C@H](C)NC(=O)[C@H](CCC(N)=O)NC(=O)[C@H](CCC(=O)O)NC(=O)[C@H](CC(=O)O)NC(=O)[C@H](CC(C)C)NC(=O)[C@@H](NC(=O)[C@@H](NC(=O)[C@H](C)NC(=O)[C@H](CC(C)C)NC(=O)[C@H](CCC(=O)O)NC(=O)[C@H](CO)NC(=O)[C@H](CO)NC(=O)[C@H](Cc1ccccc1)NC(=O)[C@@H](NC(=O)CNC(=O)[C@H](CCC(=O)O)NC(=O)C(C)(C)NC(=O)[C@@H](N)Cc1c[nH]cn1)[C@@H](C)O)[C@@H](C)O)[C@@H](C)CC)[C@@H](C)CC)C(=O)N[C@@H](C)C(=O)N[C@@H](Cc1c[nH]cn1)C(=O)N[C@@H](CCCCN)C(=O)N[C@H](C(=O)N[C@H](C(=O)N[C@@H](CC(=O)O)C(=O)N[C@H](CCCCN)C(=O)N[C@H](CCCCN)C(=O)N[C@H](CCCCN)C(=O)N[C@H](CCCCN)C(=O)N[C@H](CCCCN)C(=O)N[C@H](CCCCNC(=O)CC[C@H](NC(=O)CCCCCCCCCCCCCCCCC(=O)O)C(=O)O)C(N)=O)[C@@H](C)O)[C@@H](C)CC
B2: Compound 41 (peptide)
peptide: H-H[Aib]EGTFTSELATILDK([γGlu-C20 diacid])QAARDFIAWLIQHKITD-OH
SMILES: CC[C@H](C)[C@H](NC(=O)[C@H](Cc1ccccc1)NC(=O)[C@H](CC(=O)O)NC(=O)[C@H](CCCNC(=N)N)NC(=O)[C@H](C)NC(=O)[C@H](C)NC(=O)[C@H](CCC(N)=O)NC(=O)[C@H](CCCCNC(=O)CC[C@H](NC(=O)CCCCCCCCCCCCCCCCCCC(=O)O)C(=O)O)NC(=O)[C@H](CC(=O)O)NC(=O)[C@H](CC(C)C)NC(=O)[C@@H](NC(=O)[C@@H](NC(=O)[C@H](C)NC(=O)[C@H](CC(C)C)NC(=O)[C@H](CCC(=O)O)NC(=O)[C@H](CO)NC(=O)[C@@H](NC(=O)[C@H](Cc1ccccc1)NC(=O)[C@@H](NC(=O)CNC(=O)[C@H](CCC(=O)O)NC(=O)C(C)(C)NC(=O)[C@@H](N)Cc1c[nH]cn1)[C@@H](C)O)[C@@H](C)O)[C@@H](C)O)[C@@H](C)CC)C(=O)N[C@@H](C)C(=O)N[C@@H](Cc1c[nH]c2ccccc12)C(=O)N[C@@H](CC(C)C)C(=O)N[C@H](C(=O)N[C@@H](CCC(N)=O)C(=O)N[C@@H](Cc1c[nH]cn1)C(=O)N[C@@H](CCCCN)C(=O)N[C@H](C(=O)N[C@H](C(=O)N[C@@H](CC(=O)O)C(=O)O)[C@@H](C)O)[C@@H](C)CC)[C@@H](C)CC
B3: Compound 39 (peptide)
peptide: H-H[Aib]EGTFTSELATILDEQAARDFIAWLIAHKITD[dK][dK][dK][dK][dK][dK]([γGlu-C18 diacid])-NH2
SMILES: CC[C@H](C)[C@H](NC(=O)[C@H](CC(C)C)NC(=O)[C@H](Cc1c[nH]c2ccccc12)NC(=O)[C@H](C)NC(=O)[C@@H](NC(=O)[C@H](Cc1ccccc1)NC(=O)[C@H](CC(=O)O)NC(=O)[C@H](CCCNC(=N)N)NC(=O)[C@H](C)NC(=O)[C@H](C)NC(=O)[C@H](CCC(N)=O)NC(=O)[C@H](CCC(=O)O)NC(=O)[C@H](CC(=O)O)NC(=O)[C@H](CC(C)C)NC(=O)[C@@H](NC(=O)[C@@H](NC(=O)[C@H](C)NC(=O)[C@H](CC(C)C)NC(=O)[C@H](CCC(=O)O)NC(=O)[C@H](CO)NC(=O)[C@@H](NC(=O)[C@H](Cc1ccccc1)NC(=O)[C@@H](NC(=O)CNC(=O)[C@H](CCC(=O)O)NC(=O)C(C)(C)NC(=O)[C@@H](N)Cc1c[nH]cn1)[C@@H](C)O)[C@@H](C)O)[C@@H](C)O)[C@@H](C)CC)[C@@H](C)CC)C(=O)N[C@@H](C)C(=O)N[C@@H](Cc1c[nH]cn1)C(=O)N[C@@H](CCCCN)C(=O)N[C@H](C(=O)N[C@H](C(=O)N[C@@H](CC(=O)O)C(=O)N[C@H](CCCCN)C(=O)N[C@H](CCCCN)C(=O)N[C@H](CCCCN)C(=O)N[C@H](CCCCN)C(=O)N[C@H](CCCCN)C(=O)N[C@H](CCCCNC(=O)CC[C@H](NC(=O)CCCCCCCCCCCCCCCCC(=O)O)C(=O)O)C(N)=O)[C@@H](C)O)[C@@H](C)CC
B4: Compound 40 (peptide)
peptide: H-H[Aib]EGSFTSELATILDEQAARDFIAWLIEHKITD[dK][dK][dK][dK][dK][dK]([γGlu-C18 diacid])-NH2
SMILES: CC[C@H](C)[C@H](NC(=O)[C@H](Cc1ccccc1)NC(=O)[C@H](CC(=O)O)NC(=O)[C@H](CCCNC(=N)N)NC(=O)[C@H](C)NC(=O)[C@H](C)NC(=O)[C@H](CCC(N)=O)NC(=O)[C@H](CCC(=O)O)NC(=O)[C@H](CC(=O)O)NC(=O)[C@H](CC(C)C)NC(=O)[C@@H](NC(=O)[C@@H](NC(=O)[C@H](C)NC(=O)[C@H](CC(C)C)NC(=O)[C@H](CCC(=O)O)NC(=O)[C@H](CO)NC(=O)[C@@H](NC(=O)[C@H](Cc1ccccc1)NC(=O)[C@H](CO)NC(=O)CNC(=O)[C@H](CCC(=O)O)NC(=O)C(C)(C)NC(=O)[C@@H](N)Cc1c[nH]cn1)[C@@H](C)O)[C@@H](C)O)[C@@H](C)CC)C(=O)N[C@@H](C)C(=O)N[C@@H](Cc1c[nH]c2ccccc12)C(=O)N[C@@H](CC(C)C)C(=O)N[C@H](C(=O)N[C@@H](CCC(=O)O)C(=O)N[C@@H](Cc1c[nH]cn1)C(=O)N[C@@H](CCCCN)C(=O)N[C@H](C(=O)N[C@H](C(=O)N[C@@H](CC(=O)O)C(=O)N[C@H](CCCCN)C(=O)N[C@H](CCCCN)C(=O)N[C@H](CCCCN)C(=O)N[C@H](CCCCN)C(=O)N[C@H](CCCCN)C(=O)N[C@H](CCCCNC(=O)CC[C@H](NC(=O)CCCCCCCCCCCCCCCCC(=O)O)C(=O)O)C(N)=O)[C@@H](C)O)[C@@H](C)CC)[C@@H](C)CC
B5: Compound 43 (peptide)
peptide: H-H[Aib]EGSFTSELATILDK([AEEA-AEEA-γGlu-C20 diacid])KAARDFIAWLIEHKITD-OH
SMILES: CC[C@H](C)[C@H](NC(=O)[C@H](Cc1ccccc1)NC(=O)[C@H](CC(=O)O)NC(=O)[C@H](CCCNC(=N)N)NC(=O)[C@H](C)NC(=O)[C@H](C)NC(=O)[C@H](CCCCN)NC(=O)[C@H](CCCCNC(=O)COCCOCCNC(=O)COCCOCCNC(=O)CC[C@H](NC(=O)CCCCCCCCCCCCCCCCCCC(=O)O)C(=O)O)NC(=O)[C@H](CC(=O)O)NC(=O)[C@H](CC(C)C)NC(=O)[C@@H](NC(=O)[C@@H](NC(=O)[C@H](C)NC(=O)[C@H](CC(C)C)NC(=O)[C@H](CCC(=O)O)NC(=O)[C@H](CO)NC(=O)[C@@H](NC(=O)[C@H](Cc1ccccc1)NC(=O)[C@H](CO)NC(=O)CNC(=O)[C@H](CCC(=O)O)NC(=O)C(C)(C)NC(=O)[C@@H](N)Cc1c[nH]cn1)[C@@H](C)O)[C@@H](C)O)[C@@H](C)CC)C(=O)N[C@@H](C)C(=O)N[C@@H](Cc1c[nH]c2ccccc12)C(=O)N[C@@H](CC(C)C)C(=O)N[C@H](C(=O)N[C@@H](CCC(=O)O)C(=O)N[C@@H](Cc1c[nH]cn1)C(=O)N[C@@H](CCCCN)C(=O)N[C@H](C(=O)N[C@H](C(=O)N[C@@H](CC(=O)O)C(=O)O)[C@@H](C)O)[C@@H](C)CC)[C@@H](C)CC
B6: Compound 36 (peptide)
peptide: H-H[Aib]EGSFTSELATILDK(Stearoyl)QAARDFIAWLIQYKITD-OH
SMILES: CCCCCCCCCCCCCCCCCC(=O)NCCCC[C@H](NC(=O)[C@H](CC(=O)O)NC(=O)[C@H](CC(C)C)NC(=O)[C@@H](NC(=O)[C@@H](NC(=O)[C@H](C)NC(=O)[C@H](CC(C)C)NC(=O)[C@H](CCC(=O)O)NC(=O)[C@H](CO)NC(=O)[C@@H](NC(=O)[C@H](Cc1ccccc1)NC(=O)[C@H](CO)NC(=O)CNC(=O)[C@H](CCC(=O)O)NC(=O)C(C)(C)NC(=O)[C@@H](N)Cc1c[nH]cn1)[C@@H](C)O)[C@@H](C)O)[C@@H](C)CC)C(=O)N[C@@H](CCC(N)=O)C(=O)N[C@@H](C)C(=O)N[C@@H](C)C(=O)N[C@@H](CCCNC(=N)N)C(=O)N[C@@H](CC(=O)O)C(=O)N[C@@H](Cc1ccccc1)C(=O)N[C@H](C(=O)N[C@@H](C)C(=O)N[C@@H](Cc1c[nH]c2ccccc12)C(=O)N[C@@H](CC(C)C)C(=O)N[C@H](C(=O)N[C@@H](CCC(N)=O)C(=O)N[C@@H](Cc1ccc(O)cc1)C(=O)N[C@@H](CCCCN)C(=O)N[C@H](C(=O)N[C@H](C(=O)N[C@@H](CC(=O)O)C(=O)O)[C@@H](C)O)[C@@H](C)CC)[C@@H](C)CC)[C@@H](C)CC
B7: Compound 42 (peptide)
peptide: H-H[Aib]EGSFTSEK([AEEA-AEEA-γGlu-C20 diacid])ATILDEQAARDFIAWLIEHKITD-OH

biological target: human glucagon-like peptide 1 receptor (GLP-1R) (human, UniProt P43220); assay: cell-based or functional assay

Binder | EC50 GLP-1 (nM), cAMP AlphaScreen [nM]
B1 | 0.25
B2 | 0.048
B3 | 0.044
B4 | 0.074
B5 | 0.096
B6 | 0.32
B7 | 0.067

biological target: T1, human GLP-2 receptor (hGLP2-R); assay: cell-based or functional assay

Binder | EC50 GLP-2 (nM), cAMP AlphaScreen [nM]
B1 | 0.89
B2 | 0.62
B3 | 0.98
B4 | 0.5
B5 | 0.15
B6 | 3.2
B7 | 0.33
